This is an account of results in patent US20140120543A1 (INSTITUTE GUSTAVE ROUSSY, published 2014).

Assay [1] addresses T1, DNA repair endonuclease XPF (human, UniProt Q92889 1-916).
T1 construct: Endogenous protein of the human A549 cell line, inside fixed cells; also called encoded by the ERCC4 gene
T1 sequence: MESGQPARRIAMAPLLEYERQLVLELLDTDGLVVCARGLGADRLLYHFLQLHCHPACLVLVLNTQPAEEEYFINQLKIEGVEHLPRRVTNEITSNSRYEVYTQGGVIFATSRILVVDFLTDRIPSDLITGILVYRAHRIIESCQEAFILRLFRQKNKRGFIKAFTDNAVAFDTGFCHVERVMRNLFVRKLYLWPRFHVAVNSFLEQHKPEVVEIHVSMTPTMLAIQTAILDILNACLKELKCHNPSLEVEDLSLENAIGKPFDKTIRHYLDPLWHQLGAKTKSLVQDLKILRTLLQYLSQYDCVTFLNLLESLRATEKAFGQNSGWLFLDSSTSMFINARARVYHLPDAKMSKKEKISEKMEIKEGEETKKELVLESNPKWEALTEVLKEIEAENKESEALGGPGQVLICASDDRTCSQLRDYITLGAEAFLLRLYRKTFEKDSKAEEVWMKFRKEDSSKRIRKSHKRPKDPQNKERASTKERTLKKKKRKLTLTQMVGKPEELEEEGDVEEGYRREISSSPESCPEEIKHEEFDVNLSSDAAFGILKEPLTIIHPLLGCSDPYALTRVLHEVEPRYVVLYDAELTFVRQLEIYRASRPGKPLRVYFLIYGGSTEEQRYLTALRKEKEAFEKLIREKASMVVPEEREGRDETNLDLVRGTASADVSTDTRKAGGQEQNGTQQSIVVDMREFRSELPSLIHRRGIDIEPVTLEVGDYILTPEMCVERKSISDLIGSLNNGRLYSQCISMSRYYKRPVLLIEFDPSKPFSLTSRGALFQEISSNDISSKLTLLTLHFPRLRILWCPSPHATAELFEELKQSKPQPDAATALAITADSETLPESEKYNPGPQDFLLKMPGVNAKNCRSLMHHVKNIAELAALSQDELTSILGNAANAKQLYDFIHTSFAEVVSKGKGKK
The assay is described as follows: proximity ligation assay (Duolink) in ERCC1-deficient A549 cells re-expressing one isoform. The method, then: (§1) Protein interactions were studied using the Duolink II proximity ligation assays (PLA) kit (Olink, Uppsala, Sweden). Coverslips were processed according to the manufacturer's instructions. In brief, the cells were fixed with methanol, permeabilized with triton, stained with the primary antibodies, and then incubated with the secondary oligonucleotide-linked antibodies. The oligonucleotides were hybridized, ligated, amplified, and detected using a fluorescent probe.
Using proximity ligation assays (PLA-Duolink) technology, we investigated the binding ability of ERCC1 isoforms with ERCC1 interacting proteins.

In assay [2] the target is T2, protein TRF2 (telomeric repeat-binding factor 2) (human, UniProt Q15554 1-542).
T2 construct: Endogenous protein of the human A549 cell line, inside fixed cells; also called encoded by the TERF2 gene
T2 sequence: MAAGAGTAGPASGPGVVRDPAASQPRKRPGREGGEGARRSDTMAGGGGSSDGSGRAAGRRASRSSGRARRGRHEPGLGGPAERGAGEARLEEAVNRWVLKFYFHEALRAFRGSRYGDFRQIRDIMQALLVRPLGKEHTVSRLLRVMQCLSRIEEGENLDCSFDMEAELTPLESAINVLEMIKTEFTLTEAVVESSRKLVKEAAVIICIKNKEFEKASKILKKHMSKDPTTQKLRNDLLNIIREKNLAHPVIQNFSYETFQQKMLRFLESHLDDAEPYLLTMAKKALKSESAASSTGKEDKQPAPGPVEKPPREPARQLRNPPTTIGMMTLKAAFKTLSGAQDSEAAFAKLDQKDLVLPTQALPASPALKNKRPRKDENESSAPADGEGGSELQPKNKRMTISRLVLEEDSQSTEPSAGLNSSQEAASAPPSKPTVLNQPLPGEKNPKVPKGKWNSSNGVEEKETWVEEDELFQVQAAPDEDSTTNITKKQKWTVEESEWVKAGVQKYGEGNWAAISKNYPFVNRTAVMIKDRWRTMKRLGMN
The assay is described as follows: proximity ligation assay (Duolink), ERCC1 detected with FL297 antibody. The method, then: (§2) ERCC1 was detected using FL297 antibody.
as §1

For assay [3], the target named is T3, Fanconi anemia Group G protein FANC G (human, UniProt O15287 1-622).
T3 construct: Endogenous protein of the human A549 cell line, inside fixed cells; also called Fanconi anemia complementation group G
T3 sequence: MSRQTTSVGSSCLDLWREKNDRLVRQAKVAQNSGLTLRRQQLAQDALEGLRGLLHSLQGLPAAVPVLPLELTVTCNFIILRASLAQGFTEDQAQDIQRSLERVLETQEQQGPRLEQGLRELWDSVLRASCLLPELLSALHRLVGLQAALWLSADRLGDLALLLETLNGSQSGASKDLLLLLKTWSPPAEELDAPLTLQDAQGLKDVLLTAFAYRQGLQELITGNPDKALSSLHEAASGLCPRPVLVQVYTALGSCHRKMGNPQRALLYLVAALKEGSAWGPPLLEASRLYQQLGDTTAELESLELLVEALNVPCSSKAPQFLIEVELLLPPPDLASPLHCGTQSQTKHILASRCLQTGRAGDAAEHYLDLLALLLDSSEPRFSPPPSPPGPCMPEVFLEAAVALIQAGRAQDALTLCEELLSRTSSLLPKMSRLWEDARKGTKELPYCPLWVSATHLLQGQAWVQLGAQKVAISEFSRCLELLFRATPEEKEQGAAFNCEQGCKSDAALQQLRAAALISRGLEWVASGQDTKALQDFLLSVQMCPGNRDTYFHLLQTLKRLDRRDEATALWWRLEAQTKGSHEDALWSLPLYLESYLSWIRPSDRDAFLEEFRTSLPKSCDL
Described as above. The procedure:
as §2, §1

A further assay deals with T4, kinesin Eg5 (human, UniProt P52732 1-1056).
T4 construct: Endogenous protein of the human A549 cell line, inside fixed cells; also called encoded by the KIF11 gene
T4 sequence: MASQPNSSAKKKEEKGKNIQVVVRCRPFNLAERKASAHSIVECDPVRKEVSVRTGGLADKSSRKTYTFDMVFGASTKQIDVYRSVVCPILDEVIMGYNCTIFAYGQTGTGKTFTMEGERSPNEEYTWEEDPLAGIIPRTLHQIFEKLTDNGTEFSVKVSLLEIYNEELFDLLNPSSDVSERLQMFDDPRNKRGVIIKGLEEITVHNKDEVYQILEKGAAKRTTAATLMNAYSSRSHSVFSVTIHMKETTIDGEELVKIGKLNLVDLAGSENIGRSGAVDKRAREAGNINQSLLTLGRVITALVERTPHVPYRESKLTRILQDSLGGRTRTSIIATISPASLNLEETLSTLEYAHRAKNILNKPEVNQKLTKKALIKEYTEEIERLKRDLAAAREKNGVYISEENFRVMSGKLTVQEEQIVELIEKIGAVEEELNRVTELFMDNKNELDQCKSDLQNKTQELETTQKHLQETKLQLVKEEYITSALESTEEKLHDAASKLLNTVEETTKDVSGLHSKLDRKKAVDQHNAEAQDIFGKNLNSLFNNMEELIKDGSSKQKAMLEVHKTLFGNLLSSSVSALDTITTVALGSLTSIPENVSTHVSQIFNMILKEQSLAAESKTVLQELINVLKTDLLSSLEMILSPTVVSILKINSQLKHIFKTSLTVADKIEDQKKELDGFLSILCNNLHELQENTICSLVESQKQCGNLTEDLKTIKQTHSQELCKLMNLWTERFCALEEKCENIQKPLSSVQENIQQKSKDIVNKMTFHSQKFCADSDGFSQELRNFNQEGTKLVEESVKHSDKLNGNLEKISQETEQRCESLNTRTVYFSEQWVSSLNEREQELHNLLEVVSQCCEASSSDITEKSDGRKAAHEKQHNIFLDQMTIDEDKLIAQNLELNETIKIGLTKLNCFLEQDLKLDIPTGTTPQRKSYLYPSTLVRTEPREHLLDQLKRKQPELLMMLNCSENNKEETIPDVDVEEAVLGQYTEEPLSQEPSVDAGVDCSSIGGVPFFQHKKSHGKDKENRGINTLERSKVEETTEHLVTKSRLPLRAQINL
The description is as above. The method, then:
as §2, §1

B1: ERCC1-204 isoform (other)
chain: MDPGKDKEGVPQPSGPPARKKFVIPLDEDEVPPGVRGNPVLKFVRNVPWEFGDVIPDYVLGQSTCALFLSLRYHNLHPDYIHGRLQSLGKNFALRVLLVQVDVKDPQQALKELAKMCILADCTLILAWSPEEAGRYLETYKAYEQKPADLLMEKLEQDFVSRVTECLTTVKSVNKTDSQTLLTTFGSLEQLIAASREDLALCPGLGPQKARRLFDVLHEPFLKVP
notes: Re-expressed in ERCC1-deficient A549 clone 216; Detected inside fixed, permeabilised cells by PLA; also called isoform 204
Consider B1, for which the binding result in assay [1] was “no binding”.

B2: ERCC1-202 isoform (isoform 202 of the ERCC1 protein) (other)
chain: MDPGKDKEGVPQPSGPPARKKFVIPLDEDEVPPGVAKPLFRSTQSLPTVDTSAQAAPQTYAEYAISQPLEGAGATCPTGSEPLAGETPNQALKPGAKSNSIIVSPRQRGNPVLKFVRNVPWEFGDVIPDYVLGQSTCALFLSLRYHNLHPDYIHGRLQSLGKNFALRVLLVQVDVKDPQQALKELAKMCILADCTLILAWSPEEAGRYLETYKAYEQKPADLLMEKLEQDFVSRVTECLTTVKSVNKTDSQTLLTTFGSLEQLIAASREDLALCPGLGPQKARRLFDVLHEPFLKVP
notes: Re-expressed in ERCC1-deficient A549 clone 216; Detected inside fixed, permeabilised cells by PLA, not on the cell surface
As for B2, the binding result (in assay [2]; in assay [3]; in the assay with kinesin Eg5) was “binds” throughout.

B3: ERCC1-203 isoform (other)
chain: MDPGKDKEGVPQPSGPPARKKFVIPLDEDEVPPGVAKPLFRSTQSLPTVDTSAQAAPQTYAEYAISQPLEGAGATCPTGSEPLAGETPNQALKPGAKSNSIIVSPRQRGNPVLKFVRNVPWEFGDVIPDYVLGQSTCALFLSLRYHNLHPDYIHGRLQSLGKNFALRVLLVQVDVKDPQQALKELAKMCILADCTLILAWSPEEAGRYLETYKAYEQKPADLLMEKLEQDFVSRSLEQLIAASREDLALCPGLGPQKARRLFDVLHEPFLKVP
notes: Re-expressed in ERCC1-deficient A549 clone 216; Detected inside fixed, permeabilised cells by PLA; also called isoform 203
Regarding B3, the binding result in assay [1] is “no binding”.

B4: ERCC1-201 isoform (other)
chain: MDPGKDKEGVPQPSGPPARKKFVIPLDEDEVPPGVAKPLFRSTQSLPTVDTSAQAAPQTYAEYAISQPLEGAGATCPTGSEPLAGETPNQALKPGAKSNSIIVSPRQRGNPVLKFVRNVPWEFGDVIPDYVLGQSTCALFLSLRYHNLHPDYIHGRLQSLGKNFALRVLLVQVDVKDPQQALKELAKMCILADCTLILAWSPEEAGRYLETYKAYEQKPADLLMEKLEQDFVSRVTECLTTVKSVNKTDSQTLLTTFGSLEQLIAASREDLALCPGLGPQKVRALGKNPRSWGKERAPNKHNLRPQSFKVKKEPKTRHSGFRL
notes: Re-expressed in ERCC1-deficient A549 clone 216; Detected inside fixed, permeabilised cells by PLA; also called isoform 201
Regarding B4, the binding result in assay [1] is “no binding”.
